Experimental findings from patent US20210324059A1 (AMLO BIOSCIENCES, published 2021) are described below.

The target in experiment [1] is T1, N1-CD33-His6 (the ectodomain of human CD33 fused to the N1 domain of the g3p filamentous phage M13) (filamentous phage M13; human, UniProt P20138 18-259).
T1 construct: extracellular domain; Control protein of the QC ELISA, used for calculation of background; not shown: N1 domain of g3p of filamentous phage M13
As to the kind of experiment: QC ELISA on immobilized control protein. (In general: In an ELISA, binding on a coated surface is turned into a signal by an enzyme label.)

Experiment [2] deals with T1, N1-CD33-His6 (the ectodomain of human …). As to the kind of experiment: quality control ELISA on immobilized control protein.
Experiment [3] has as its target T2, human Ambra-1 (human, UniProt Q9C0C7 1-1298).
T2 construct: Endogenous protein in formalin fixed paraffin embedded human skin and melanoma sections (immunohistochemistry)
T2 sequence: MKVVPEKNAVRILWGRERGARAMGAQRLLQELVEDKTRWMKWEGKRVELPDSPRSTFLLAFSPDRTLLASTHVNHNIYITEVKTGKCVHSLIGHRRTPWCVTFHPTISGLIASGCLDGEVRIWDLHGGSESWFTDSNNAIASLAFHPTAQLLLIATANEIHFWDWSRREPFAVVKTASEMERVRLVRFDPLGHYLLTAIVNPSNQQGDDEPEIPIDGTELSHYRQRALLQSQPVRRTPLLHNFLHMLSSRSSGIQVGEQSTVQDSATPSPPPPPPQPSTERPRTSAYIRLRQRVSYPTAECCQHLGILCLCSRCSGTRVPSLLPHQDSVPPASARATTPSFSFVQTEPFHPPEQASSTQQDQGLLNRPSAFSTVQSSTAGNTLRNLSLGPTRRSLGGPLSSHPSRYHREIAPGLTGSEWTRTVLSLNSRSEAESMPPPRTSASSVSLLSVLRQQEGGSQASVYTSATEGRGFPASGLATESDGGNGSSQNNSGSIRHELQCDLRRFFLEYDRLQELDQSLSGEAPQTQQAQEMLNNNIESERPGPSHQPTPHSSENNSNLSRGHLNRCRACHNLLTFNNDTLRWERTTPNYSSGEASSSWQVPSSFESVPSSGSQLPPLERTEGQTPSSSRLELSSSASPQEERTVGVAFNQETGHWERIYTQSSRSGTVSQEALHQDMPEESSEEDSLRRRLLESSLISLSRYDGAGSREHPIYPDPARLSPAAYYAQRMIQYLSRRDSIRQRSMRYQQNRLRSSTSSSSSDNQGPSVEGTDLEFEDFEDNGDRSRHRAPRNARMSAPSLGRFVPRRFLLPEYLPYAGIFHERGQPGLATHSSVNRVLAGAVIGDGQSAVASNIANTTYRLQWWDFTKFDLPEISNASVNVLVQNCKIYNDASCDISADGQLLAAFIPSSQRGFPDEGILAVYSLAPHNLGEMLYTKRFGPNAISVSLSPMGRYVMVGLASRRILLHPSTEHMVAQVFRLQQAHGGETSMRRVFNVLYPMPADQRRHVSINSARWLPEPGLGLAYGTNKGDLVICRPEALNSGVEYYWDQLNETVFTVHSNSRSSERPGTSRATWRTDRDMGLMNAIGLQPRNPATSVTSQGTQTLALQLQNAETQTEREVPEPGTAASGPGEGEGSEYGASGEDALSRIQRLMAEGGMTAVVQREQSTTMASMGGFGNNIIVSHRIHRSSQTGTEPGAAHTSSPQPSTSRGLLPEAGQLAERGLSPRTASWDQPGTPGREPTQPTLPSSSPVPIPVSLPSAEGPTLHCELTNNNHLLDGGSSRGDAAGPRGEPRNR
As to the kind of experiment: automated immunohistochemistry, DAB chromogen.

Experiment [4] deals with T1, N1-CD33-His6 (the ectodomain of human …). As to the kind of experiment: quality control ELISA on immobilized control protein. This is another data set of the same source.
Experiment [5] concerns the target T3, Ambra-1 peptide (synthesized peptide to which anti-Ambra-1 antibodies were raised) (human, also: conjugated to carrier protein (BSA), site not given here).
T3 construct: It was tested in native and denatured form; also called Ambra-1 antigen
T3 peptide: CGGSSRGDAAGPRGEPRNR
As to the kind of experiment: quality control ELISA, chimeric human/mouse IgG1 on immobilized Amb1-TRF and Amb1-BSA (Ambra-1 peptide conjugates), signal over background.

No end group written: not given here.

T1 sequence (P20138 18-259, tags left off): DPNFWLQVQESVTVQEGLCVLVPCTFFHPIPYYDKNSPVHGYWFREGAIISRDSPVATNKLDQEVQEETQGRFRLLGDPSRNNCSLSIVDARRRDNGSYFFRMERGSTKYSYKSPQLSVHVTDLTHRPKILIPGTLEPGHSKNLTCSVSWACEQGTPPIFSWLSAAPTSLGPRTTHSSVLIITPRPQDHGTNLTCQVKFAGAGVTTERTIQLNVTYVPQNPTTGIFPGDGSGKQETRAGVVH

B1: recombinant human HuCAL antibody fragment for Ambra-1 Abd33473.1 (Fab)
heavy: EVQLVQSGAEVKKPGESLKISCKGSGYSFSSYWIHWVRQMPGKGLEWMGTIFPSRSYTTYSPSFQGQVTISADKSISTAYLQWSSLKASDTAMYYCARDTPSTALKSPFDYWGQGTLVTVSSASTKGPSVFPLAPSSKSTSGGTAALGCLVKDYFPEPVTVSWNSGALTSGVHTFPAVLQSSGLYSLSSVVTVPSSSLGTQTYICNVNHKPSNTKVDKKVEPKSRTPEMPVLENRAAQGDITAPGGARRLTGDQTAALRDSLSDKPAKNIILLIGDGMGDSEITAARNYAEGAGGFFKGIDALPLTGQYTHYALNKKTGKPDYVTDSAASATAWSTGVKTYNGALGVDIHEKDHPTILEMAKAAGLATGNVSTAELQDATPAALVAHVTSRKCYGPSATSEKCPGNALEKGGKGSITEQLLNARADVTLGGGAKTFAETATAGEWQGKTLREQAQARGYQLVSDAASLNSVTEANQQKPLLGLFADGNMPVRWLGPKATYHGNIDKPAVTCTPNPQRNDSVPTLAQMTDKAIELLSKNEKGFFLQVEGASIDKQDHAANPCGQIGETVDLDEAVQRALEFAKKEGNTLVIVTADHAHASQIVAPDTKAPGLTQALNTKDGAVMVMSYGNSEEDSQEHTGSQLRIAAYGPHAANVVGLTDQTDLFYTMKAALGLKDYKDDDDKHHHHHH
light: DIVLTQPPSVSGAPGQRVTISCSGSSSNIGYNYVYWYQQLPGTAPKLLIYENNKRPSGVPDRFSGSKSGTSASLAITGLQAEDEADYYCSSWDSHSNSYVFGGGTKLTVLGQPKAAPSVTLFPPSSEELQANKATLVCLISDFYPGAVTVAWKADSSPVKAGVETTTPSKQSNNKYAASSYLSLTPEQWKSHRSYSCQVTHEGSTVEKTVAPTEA
notes: also called HuCAL antibody 33473
In the case of B1, the binding result in experiment [1] was “no binding”.

B2: full length chimeric antibody AbD33047 with an IgG1 mouse Fc region (antibody, V domains shown)
VH: QVQLVQSGAEVKKPGASVKVSCKASGYTFNDYYIHWVRQAPGQGLEWMGVISPNSGKTNYAQKFQGRVTMTRDTSISTAYMELSRLRSEDTAVYYCARDLYPDSSAFDIWGQGTLVTVSS
VL: DIELTQPPSVSVSPGQTASITCSGDNLGDKYAHWYQQKPGQAPVLVIYDDNERPSGIPERFSGSNSGNTATLTISGTQAEDEADYYCQSYDSGNRVFGGGTKLTVLG
notes: also called recombinant monoclonal antibody AbD33047; HuCAL antibody AbD33047
B2: in experiment [2], the binding result is reported as “no binding”.

B3: full length chimeric antibody AbD33473 with an IgG1 mouse Fc region (antibody, V domains shown)
VH: EVQLVQSGAEVKKPGESLKISCKGSGYSFSSYWIHWVRQMPGKGLEWMGTIFPSRSYTTYSPSFQGQVTISADKSISTAYLQWSSLKASDTAMYYCARDTPSTALKSPFDYWGQGTLVTVSS
VL: DIVLTQPPSVSGAPGQRVTISCSGSSSNIGYNYVYWYQQLPGTAPKLLIYENNKRPSGVPDRFSGSKSGTSASLAITGLQAEDEADYYCSSWDSHSNSYVFGGGTKLTVLG
notes: also called recombinant monoclonal antibody AbD33473; HuCAL antibody AbD33473
Consider B3, for which the binding result in experiment [3] is “binds”; in experiment [4], “no binding”; in experiment [5], “binds”.
